# US20110245153A1
# Target: Staphylococcal enterotoxin B (Staphylococcus aureus) (UniProt P01552)
# UniProt P01552, sequence (P01552 28-266 limits assumed): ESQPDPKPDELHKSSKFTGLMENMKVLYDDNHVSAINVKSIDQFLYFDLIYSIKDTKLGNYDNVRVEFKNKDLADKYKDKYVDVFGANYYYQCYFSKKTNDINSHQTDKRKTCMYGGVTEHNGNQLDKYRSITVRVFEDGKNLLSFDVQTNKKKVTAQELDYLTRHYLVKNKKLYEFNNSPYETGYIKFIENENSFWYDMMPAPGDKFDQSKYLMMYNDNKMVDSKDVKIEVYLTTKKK
substance,measurement,value
Vβ8 CDR2 mutant EGIGYITK (TCR),Kd,5 nM
